# Target: SoPIP2;1 wild type (Spinacia oleracea)
# Experiment: SDS-PAGE (SDS-resistant oligomers); purified protein mixed with SDS sample loading buffer (125 mM Tris-HCl pH 6.8, 20% glycerol, 4% SDS), 10 min at room temperature, 12% gel, Coomassie; WT also pre-incubated with DTT or β-mercaptoethanol for varying times; WT against mutants with 10% β-mercaptoethanol in the loading buffer; monomer to dimer
substance,measurement,value
SoPIP2;1 wild type (natural protein),stoichiometry N,2

# Reference: paper PMC5004352
